System: Mdj1 (wt, mature)
Assay: EMSA
Conditions: EMSA with 0.36 nM 32P-ori5 DNA; buffer, salt, pH and temperature not given (as described in ref 35)

ori5 71 bp fragment gave a Kd of 210 nM.
